This is an account of results in PMC8154523.

Assay in all cases: NMR
Common to all, as to conditions: 30 °C

The subject of data set [1] is Asp32 (position 32, […]).
Data set [2] relates to Glu43 (position 43, […]).
For data set [3], the system named is Glu73 (position 73, […]).
Data set [4] relates to Glu28 (position 28, […]).
Data set [5] concerns Asp46 (position 46, […]).
For data set [6], the system named is Asp77 (position 77, […]).
The mark [7] stands for this setting: 50 mM NaCl (plus 20 mM phosphate and 5 mM polyanionic sclx8), D-fructose-bound RSL in the presence of 5 mM sclx8 (binding has mM affinity and is pH dependent).
[8] abbreviates: 50 mM NaCl (plus 20 mM phosphate), D-fructose-bound RSL, no sclx8 (0 mM).

Where only a bound is given, the exact number is not on record here.

The pKa is the pH at which an ionisable group is half protonated. Consider “Ralstonia solanacearum lectin (RSL), fucose-binding lectin (Ralstonia solanacearum)”, for which the pKa is 3.7±0.01 in data set [1] (setting [7]); 1.7±0.02 in data set [1] (setting [8]); 6.2±0.01 in data set [2] (setting [7]); 5.9±0.01 in data set [2] (setting [8]); less than 2.0 in data set [3] (setting [7]); less than 2.0 in data set [3] (setting [8]). Further, the pKa in data set [4] (setting [7]) is on record as less than 2.0; in data set [4] (setting [8]), less than 2.0; in data set [5] (setting [7]) it was 4.2±0.01; in data set [5] (setting [8]), 3.5±0.01; in data set [6] (setting [7]), less than 2.0; in data set [6] (setting [8]), less than 2.0.
